# Measurements published in PMC2864582.
# Like-named read-outs stand apart in the source and are kept apart here.
# B1: 30Ext (pos. B) (dsDNA)
# DNA 1: ATCAGATAGCATCTGTGCGGCCGCTTAGGGTTAGGG
# DNA 2: CCCTAAGCGGCCGCACAGATGCTATCTGAT
# B2: 30Ext (pos. A) (dsDNA)
# DNA 1: B1 DNA 1
# DNA 2: B1 DNA 2
# B3: 30Blunt (dsDNA)
# DNA 1: ATCAGATAGCATCTGTGCGGCCGCTTAGGG
# DNA 2: B1 DNA 2
# Experiments:
# Experiment in all cases: fluorescence quenching
# hparp486 [1] = target: T1, hparp486 (Homo sapiens, UniProt P09874 1-486)
# hparp486 [2] = target: T1, hparp486; remark: listed apart in the source
# hparp486 [3] = target: T1, hparp486; remark: listed apart in the source
# T1 sequence (P09874 1-486): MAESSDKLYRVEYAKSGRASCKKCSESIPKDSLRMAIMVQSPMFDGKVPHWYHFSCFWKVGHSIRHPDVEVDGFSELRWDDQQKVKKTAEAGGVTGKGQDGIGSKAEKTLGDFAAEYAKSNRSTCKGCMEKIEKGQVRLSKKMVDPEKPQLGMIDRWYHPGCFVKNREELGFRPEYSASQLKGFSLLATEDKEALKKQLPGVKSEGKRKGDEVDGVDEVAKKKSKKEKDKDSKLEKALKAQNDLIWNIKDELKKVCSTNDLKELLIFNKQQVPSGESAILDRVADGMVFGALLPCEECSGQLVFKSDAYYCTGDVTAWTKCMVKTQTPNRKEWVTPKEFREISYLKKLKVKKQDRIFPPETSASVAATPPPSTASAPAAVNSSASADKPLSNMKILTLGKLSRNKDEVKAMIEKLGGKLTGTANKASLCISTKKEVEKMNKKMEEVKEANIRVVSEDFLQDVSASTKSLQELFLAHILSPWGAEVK
binder,measurement,setting,value
B1,Kd,hparp486 [1],0.13 µM
B2,Kd,hparp486 [2],0.068 µM
B3,Kd,hparp486 [3],0.282 µM
